B1: RDE-4 truncation R3 (dsRBM3 only, begins with M244) (domain or fragment, C. elegans, UniProt G5EBF5 244-385, looked up)
chain: MVDVIENLEEAEHLLEIQDQASKIKDKHSALIDILSDKKRFSDYSMDFNVLSVSTMGIHQVLLEISFRRLVSPDPDDLEMGAEHTQTEEIMKATAEKEKLRKKNMPDSGPLVFAGHGSSAEEAKQCACKSAIIHFNTYDFTD
B2: RDE-4 dsRBM1 and dsRBM2 point mutant R1^AAR2^AAR3 (K89A/K90A/K217A/K218A) (natural protein, C. elegans, UniProt G5EBF5 1-385, looked up)
chain: MDLTKLTFESVFGGSDVPMKPSRSEDNKTPRNRTDLEMFLKKTPLMVLEEAAKAVYQKTPTWGTVELPEGFEMTLILNEITVKGQATSAAAARQKAAVEYLRKVVEKGKHEIFFIPGTTKEEALSNIDQISDKAEELKRSTSDAVQDNDNDDSIPTSAEFPPGISPTENWVGKLQEKSQKSKLQAPIYEDSKNERTERFLVICTMCNQKTRGIRSKAADAKNLAAWLMWKALEDGIESLESYDMVDVIENLEEAEHLLEIQDQASKIKDKHSALIDILSDKKRFSDYSMDFNVLSVSTMGIHQVLLEISFRRLVSPDPDDLEMGAEHTQTEEIMKATAEKEKLRKKNMPDSGPLVFAGHGSSAEEAKQCACKSAIIHFNTYDFTD
B3: RDE-4 dsRBM2 point mutant R1R2^AAR3 (K217A/K218A) (natural protein, C. elegans, UniProt G5EBF5 1-385, looked up)
chain: MDLTKLTFESVFGGSDVPMKPSRSEDNKTPRNRTDLEMFLKKTPLMVLEEAAKAVYQKTPTWGTVELPEGFEMTLILNEITVKGQATSKKAARQKAAVEYLRKVVEKGKHEIFFIPGTTKEEALSNIDQISDKAEELKRSTSDAVQDNDNDDSIPTSAEFPPGISPTENWVGKLQEKSQKSKLQAPIYEDSKNERTERFLVICTMCNQKTRGIRSKAADAKNLAAWLMWKALEDGIESLESYDMVDVIENLEEAEHLLEIQDQASKIKDKHSALIDILSDKKRFSDYSMDFNVLSVSTMGIHQVLLEISFRRLVSPDPDDLEMGAEHTQTEEIMKATAEKEKLRKKNMPDSGPLVFAGHGSSAEEAKQCACKSAIIHFNTYDFTD
B4: RDE-4 dsRBM1 point mutant R1^AAR2R3 (K89A/K90A) (natural protein, C. elegans, UniProt G5EBF5 1-385, looked up)
chain: MDLTKLTFESVFGGSDVPMKPSRSEDNKTPRNRTDLEMFLKKTPLMVLEEAAKAVYQKTPTWGTVELPEGFEMTLILNEITVKGQATSAAAARQKAAVEYLRKVVEKGKHEIFFIPGTTKEEALSNIDQISDKAEELKRSTSDAVQDNDNDDSIPTSAEFPPGISPTENWVGKLQEKSQKSKLQAPIYEDSKNERTERFLVICTMCNQKTRGIRSKKKDAKNLAAWLMWKALEDGIESLESYDMVDVIENLEEAEHLLEIQDQASKIKDKHSALIDILSDKKRFSDYSMDFNVLSVSTMGIHQVLLEISFRRLVSPDPDDLEMGAEHTQTEEIMKATAEKEKLRKKNMPDSGPLVFAGHGSSAEEAKQCACKSAIIHFNTYDFTD

Molecular target: DCR-1•DRH-1 complex (DCR-1•(OSF)DRH-1) (C. elegans, UniProt P34529 1-1910; G5EDI8 1-1037)
Test: pull-down

Binder	percent recovery normalized to WT RDE-4 [%]
B1	~72
B2	> 100
B3	> 100
B4	> 100
